Source: patent publication US20030229005A1 (BIOZYME, published 2003)
*1 amine or outer side, *2 acyl side, *3 side chain or, on linkers, in order; H or OH if unused. [ ]: non-standard residue; d: D form. The star is where a group is joined. Dnp = O=[N+]([O-])c1ccc(*)c([N+](=O)[O-])c1; C(Me) = CSC[C@H](N[*:1])C(=O)[*:2]

Columns and labels:
Assay in all cases: cell-based or functional assay
[1] = biological target: T1, collagenase 1 (UniProt P03956 100-469, limits assumed)
T1 sequence (looked up): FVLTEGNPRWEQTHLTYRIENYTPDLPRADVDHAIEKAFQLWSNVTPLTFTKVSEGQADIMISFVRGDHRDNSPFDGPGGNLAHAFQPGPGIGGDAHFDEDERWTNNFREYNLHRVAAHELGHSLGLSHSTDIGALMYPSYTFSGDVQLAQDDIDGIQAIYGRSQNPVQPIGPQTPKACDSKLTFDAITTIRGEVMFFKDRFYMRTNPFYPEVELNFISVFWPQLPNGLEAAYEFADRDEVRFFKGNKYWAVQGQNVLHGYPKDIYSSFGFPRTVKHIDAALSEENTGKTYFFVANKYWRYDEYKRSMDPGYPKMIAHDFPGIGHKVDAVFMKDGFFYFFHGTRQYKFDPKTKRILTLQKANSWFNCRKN

[2] = biological target: T2, human Gelatinase-A (human, UniProt P08253 110-660, limits assumed)
T2 sequence (looked up): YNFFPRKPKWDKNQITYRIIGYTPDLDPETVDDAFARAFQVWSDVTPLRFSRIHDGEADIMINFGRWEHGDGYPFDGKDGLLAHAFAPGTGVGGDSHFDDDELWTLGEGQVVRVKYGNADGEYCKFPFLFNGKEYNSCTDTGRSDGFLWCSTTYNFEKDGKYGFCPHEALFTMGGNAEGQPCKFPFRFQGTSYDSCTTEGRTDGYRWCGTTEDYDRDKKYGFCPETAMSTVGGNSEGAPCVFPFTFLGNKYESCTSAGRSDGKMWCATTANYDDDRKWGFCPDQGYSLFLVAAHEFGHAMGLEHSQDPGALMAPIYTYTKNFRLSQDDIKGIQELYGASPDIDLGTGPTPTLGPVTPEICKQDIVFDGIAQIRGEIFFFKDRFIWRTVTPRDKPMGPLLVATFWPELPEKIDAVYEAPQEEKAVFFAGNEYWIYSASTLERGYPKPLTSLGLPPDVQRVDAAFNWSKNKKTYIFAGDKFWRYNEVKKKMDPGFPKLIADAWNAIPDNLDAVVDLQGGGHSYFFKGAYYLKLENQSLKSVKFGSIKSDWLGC

[3] = biological target: gelatinase B (UniProt P14780 107-707, limits assumed)
Sequence of gelatinase B (P14780 107-707 limits assumed): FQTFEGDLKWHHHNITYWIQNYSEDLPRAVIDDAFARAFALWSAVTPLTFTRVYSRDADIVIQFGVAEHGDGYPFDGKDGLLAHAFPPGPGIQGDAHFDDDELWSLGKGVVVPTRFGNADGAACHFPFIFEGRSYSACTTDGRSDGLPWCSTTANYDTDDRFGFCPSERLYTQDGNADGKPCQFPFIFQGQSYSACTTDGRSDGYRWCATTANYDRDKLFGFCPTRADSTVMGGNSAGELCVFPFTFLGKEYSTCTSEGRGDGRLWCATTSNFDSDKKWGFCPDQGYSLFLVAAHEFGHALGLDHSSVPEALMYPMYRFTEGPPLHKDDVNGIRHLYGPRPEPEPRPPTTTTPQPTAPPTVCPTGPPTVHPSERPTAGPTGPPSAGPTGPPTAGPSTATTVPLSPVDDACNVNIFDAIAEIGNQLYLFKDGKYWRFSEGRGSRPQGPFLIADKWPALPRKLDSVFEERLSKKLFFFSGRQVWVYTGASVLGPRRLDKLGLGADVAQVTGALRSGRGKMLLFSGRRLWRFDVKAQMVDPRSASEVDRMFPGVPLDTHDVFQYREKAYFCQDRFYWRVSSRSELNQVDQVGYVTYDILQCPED

[4] = biological target: stromelysin 1 (UniProt P08254 100-477, limits assumed)
Sequence of stromelysin 1 (P08254 100-477 limits assumed): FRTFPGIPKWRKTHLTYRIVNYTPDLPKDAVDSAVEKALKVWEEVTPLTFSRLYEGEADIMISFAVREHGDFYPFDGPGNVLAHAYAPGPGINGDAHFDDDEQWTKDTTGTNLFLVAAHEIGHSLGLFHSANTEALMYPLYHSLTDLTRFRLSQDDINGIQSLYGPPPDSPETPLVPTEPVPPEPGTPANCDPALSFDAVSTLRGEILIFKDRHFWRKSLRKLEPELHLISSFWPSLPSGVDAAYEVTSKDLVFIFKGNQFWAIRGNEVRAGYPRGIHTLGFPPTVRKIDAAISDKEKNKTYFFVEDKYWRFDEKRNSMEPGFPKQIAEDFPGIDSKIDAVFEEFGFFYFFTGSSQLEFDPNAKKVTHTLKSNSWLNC

| Binder | Selectivity v. Coll-3 [1] [unitless] | Selectivity v. Coll-3 [2] [unitless] | Selectivity v. Coll-3 [3] [unitless] | Selectivity v. Coll-3 [4] [unitless] | also measured |
| --- | --- | --- | --- | --- | --- |
| Dnp-DEGPMGLK[C(Me)]YLG-NH2 (SMILES CSCC[C@H](NC(=O)[C@@H]1CCCN1C(=O)CNC(=O)[C@H](CCC(=O)O)NC(=O)[C@H](CC(=O)O)Nc1ccc([N+](=O)[O-])cc1[N+](=O)[O-])C(=O)NCC(=O)N[C@@H](CC(C)C)C(=O)N[C@@H](CCCCN)C(=O)N[C@@H](CSC)C(=O)N[C@@H](Cc1ccc(O)cc1)C(=O)N[C@@H](CC(C)C)C(=O)NCC(N)=O) [Dnp-…(Me)YLG-NH2] | 452 | 9 | 4 | 468 |  |
| Dnp-GPVNLHGR[C(Me)]-NH2 (SMILES CSC[C@H](NC(=O)[C@H](CCCNC(=N)N)NC(=O)CNC(=O)[C@H](Cc1c[nH]cn1)NC(=O)[C@H](CC(C)C)NC(=O)[C@H](CC(N)=O)NC(=O)[C@@H](NC(=O)[C@@H]1CCCN1C(=O)CNc1ccc([N+](=O)[O-])cc1[N+](=O)[O-])C(C)C)C(N)=O) [Dnp-…(Me)-NH2] | 2120 | 9 | 2 | 510 |  |
| Dnp-GPFGLKG-NH2 (SMILES CC(C)C[C@H](NC(=O)CNC(=O)[C@H](Cc1ccccc1)NC(=O)[C@@H]1CCCN1C(=O)CNc1ccc([N+](=O)[O-])cc1[N+](=O)[O-])C(=O)N[C@@H](CCCCN)C(=O)NCC(N)=O) [Dnp-GPFGLKG-NH2] | 408 | 26 | 3 | 1380 |  |
| Dnp-PSGIHL-NH2 (SMILES CC[C@H](C)[C@H](NC(=O)CNC(=O)[C@H](CO)NC(=O)[C@@H]1CCCN1c1ccc([N+](=O)[O-])cc1[N+](=O)[O-])C(=O)N[C@@H](Cc1c[nH]cn1)C(=O)N[C@@H](CC(C)C)C(N)=O) [Dnp-PSGIHL-NH2] | 1320 | 2 | 2 |  |  |
| Dnp-PLGMRG-NH2 (SMILES CSCC[C@H](NC(=O)CNC(=O)[C@H](CC(C)C)NC(=O)[C@@H]1CCCN1c1ccc([N+](=O)[O-])cc1[N+](=O)[O-])C(=O)N[C@@H](CCCNC(=N)N)C(=O)NCC(N)=O) [Dnp-PLGMRG-NH2] | 73 | 2 | 1 |  |  |
| Dnp-GPINLHG-NH2 (SMILES CC[C@H](C)[C@H](NC(=O)[C@@H]1CCCN1C(=O)CNc1ccc([N+](=O)[O-])cc1[N+](=O)[O-])C(=O)N[C@@H](CC(N)=O)C(=O)N[C@@H](CC(C)C)C(=O)N[C@@H](Cc1c[nH]cn1)C(=O)NCC(N)=O) [Dnp-GPINLHG-NH2] | 180 | 28 | 15 | 1110 |  |
| Dnp-GPMSYNG-NH2 (SMILES CSCC[C@H](NC(=O)[C@@H]1CCCN1C(=O)CNc1ccc([N+](=O)[O-])cc1[N+](=O)[O-])C(=O)N[C@@H](CO)C(=O)N[C@@H](Cc1ccc(O)cc1)C(=O)N[C@@H](CC(N)=O)C(=O)NCC(N)=O) [Dnp-GPMSYNG-NH2] | 201 | 5 | 3 |  |  |
| Dnp-GPVNLHG[C(Me)]-NH2 (SMILES CSC[C@H](NC(=O)CNC(=O)[C@H](Cc1c[nH]cn1)NC(=O)[C@H](CC(C)C)NC(=O)[C@H](CC(N)=O)NC(=O)[C@@H](NC(=O)[C@@H]1CCCN1C(=O)CNc1ccc([N+](=O)[O-])cc1[N+](=O)[O-])C(C)C)C(N)=O) [Dnp-GPVNLHGC(Me)-NH2] | 1390 | 15 | 3 | 770 |  |
| Dnp-GPLGMRG-NH2 (SMILES CSCC[C@H](NC(=O)CNC(=O)[C@H](CC(C)C)NC(=O)[C@@H]1CCCN1C(=O)CNc1ccc([N+](=O)[O-])cc1[N+](=O)[O-])C(=O)N[C@@H](CCCNC(=N)N)C(=O)NCC(N)=O) [Dnp-GPLGMRG-NH2] |  |  |  |  | Selectivity v. Coll-3, + 1:1 Gelatin [1]: 91 unitless; Selectivity v. Coll-3, + 1:4 Gelatin [1]: 96 unitless; Selectivity v. Coll-3, + 1:16 Gelatin [1]: 215 unitless; Selectivity v. Coll-3, + 1:64 Gelatin [1]: 236 unitless; Selectivity v. Coll-3, + 1:256 Gelatin [1]: 378 unitless; Selectivity v. Coll-3, + H2O [1]: 245 unitless; Selectivity v. Coll-3, + 1:1 Gelatin [2]: 41 unitless; Selectivity v. Coll-3, + 1:4 Gelatin [2]: 46 unitless; Selectivity v. Coll-3, + 1:16 Gelatin [2]: 84 unitless; Selectivity v. Coll-3, + 1:64 Gelatin [2]: 69 unitless; Selectivity v. Coll-3, + 1:256 Gelatin [2]: 73 unitless; Selectivity v. Coll-3, + H2O [2]: 6 unitless; Selectivity v. Coll-3, + 1:1 Gelatin [3]: 5 unitless; Selectivity v. Coll-3, + 1:4 Gelatin [3]: 5 unitless; Selectivity v. Coll-3, + 1:16 Gelatin [3]: 13 unitless; Selectivity v. Coll-3, + 1:64 Gelatin [3]: 13 unitless; Selectivity v. Coll-3, + 1:256 Gelatin [3]: 18 unitless; Selectivity v. Coll-3, + H2O [3]: 2 unitless |
| Dnp-GPLQMRG-NH2 (SMILES CSCC[C@H](NC(=O)[C@H](CCC(N)=O)NC(=O)[C@H](CC(C)C)NC(=O)[C@@H]1CCCN1C(=O)CNc1ccc([N+](=O)[O-])cc1[N+](=O)[O-])C(=O)N[C@@H](CCCNC(=N)N)C(=O)NCC(N)=O) [Dnp-GPLQMRG-NH2] | 290 | 15 | 1 | 311 |  |
| Dnp-GPLSISG-NH2 (SMILES CC[C@H](C)[C@H](NC(=O)[C@H](CO)NC(=O)[C@H](CC(C)C)NC(=O)[C@@H]1CCCN1C(=O)CNc1ccc([N+](=O)[O-])cc1[N+](=O)[O-])C(=O)N[C@@H](CO)C(=O)NCC(N)=O) [Dnp-GPLSISG-NH2] | 11 | 7 | 1 |  |  |
| Dnp-GPSELKG-NH2 (SMILES CC(C)C[C@H](NC(=O)[C@H](CCC(=O)O)NC(=O)[C@H](CO)NC(=O)[C@@H]1CCCN1C(=O)CNc1ccc([N+](=O)[O-])cc1[N+](=O)[O-])C(=O)N[C@@H](CCCCN)C(=O)NCC(N)=O) [Dnp-GPSELKG-NH2] | 470 | 7 | 4 | 831 |  |
| Dnp-GPRPFRG-NH2 (SMILES N=C(N)NCCC[C@H](NC(=O)[C@H](Cc1ccccc1)NC(=O)[C@@H]1CCCN1C(=O)[C@H](CCCNC(=N)N)NC(=O)[C@@H]1CCCN1C(=O)CNc1ccc([N+](=O)[O-])cc1[N+](=O)[O-])C(=O)NCC(N)=O) [Dnp-GPRPFRG-NH2] | 4200 | 9 | 4 |  |  |
| Dnp-V[C(Me)]PKGITS[C(Me)]VFR-NH2 (SMILES CC[C@H](C)[C@H](NC(=O)CNC(=O)[C@H](CCCCN)NC(=O)[C@@H]1CCCN1C(=O)[C@H](CSC)NC(=O)[C@@H](Nc1ccc([N+](=O)[O-])cc1[N+](=O)[O-])C(C)C)C(=O)N[C@H](C(=O)N[C@@H](CO)C(=O)N[C@@H](CSC)C(=O)N[C@H](C(=O)N[C@@H](Cc1ccccc1)C(=O)N[C@@H](CCCNC(=N)N)C(N)=O)C(C)C)[C@@H](C)O) [Dnp-VC(Me)PKGITSC(Me)VFR-NH2] | 215 | 7 | 1 | 835 |  |
| Dnp-PINLHG-NH2 (SMILES CC[C@H](C)[C@H](NC(=O)[C@@H]1CCCN1c1ccc([N+](=O)[O-])cc1[N+](=O)[O-])C(=O)N[C@@H](CC(N)=O)C(=O)N[C@@H](CC(C)C)C(=O)N[C@@H](Cc1c[nH]cn1)C(=O)NCC(N)=O) [Dnp-PINLHG-NH2] | 101 | 9 | 4 | 824 |  |
| Dnp-GPHPMRG-NH2 (SMILES CSCC[C@H](NC(=O)[C@@H]1CCCN1C(=O)[C@H](Cc1c[nH]cn1)NC(=O)[C@@H]1CCCN1C(=O)CNc1ccc([N+](=O)[O-])cc1[N+](=O)[O-])C(=O)N[C@@H](CCCNC(=N)N)C(=O)NCC(N)=O) [Dnp-GPHPMRG-NH2] | 526 | 12 | 4 | 287 |  |
